Experimental data taken from IntAct's records for PubMed 24725409.

B1: Cadherin-related family member 2 (Homo sapiens), Q9BYE9 (parent)
chain: MAQLWLSCFLLPALVVSVAANVAPKFLANMTSVILPEDLPVGAQAFWLVAEDQDNDPLTYGMSGPNAYFFAVTPKTGEVKLASALDYETLYTFKVTISVSDPYIQVQREMLVIVEDRNDNAPVFQNTAFSTSINETLPVGSVVFSVLAVDKDMGSAGMVVYSIEKVIPSTGDSEHLFRILANGSIVLNGSLSYNNKSAFYQLELKACDLGGMYHNTFTIQCSLPVFLSISVVDQPDLDPQFVREFYSASVAEDAAKGTSVLTVEAVDGDKGINDPVIYSISYSTRPGWFDIGADGVIRVNGSLDREQLLEADEEVQLQVTATETHLNIYGQEAKVSIWVTVRVMDVNDHKPEFYNCSLPACTFTPEEAQVNFTGYVDEHASPRIPIDDLTMVVYDPDKGSNGTFLLSLGGPDAEAFSVSPERAVGSASVQVLVRVSALVDYERQTAMAVQVVATDSVSQNFSVAMVTIHLRDINDHRPTFPQSLYVLTVPEHSATGSVVTDSIHATDPDTGAWGQITYSLLPGNGADLFQVDPVSGTVTVRNGELLDRESQAVYYLTLQATDGGNLSSSTTLQIHLLDINDNAPVVSGSYNIFVQEEEGNVSVTIQAHDNDEPGTNNSRLLFNLLPGPYSHNFSLDPDTGLLRNLGPLDREAIDPALEGRIVLTVLVSDCGEPVLGTKVNVTITVEDINDNLPIFNQSSYNFTVKEEDPGVLVGVVKAWDADQTEANNRISFSLSGSGANYFMIRGLVLGAGWAEGYLRLPPDVSLDYETQPVFNLTVSAENPDPQGGETIVDVCVNVKDVNDNPPTLDVASLRGIRVAENGSQHGQVAVVVASDVDTSAQLEIQLVNILCTKAGVDVGSLCWGWFSVAANGSVYINQSKAIDYEACDLVTLVVRACDLATDPGFQAYSNNGSLLITIEDVNDNAPYFLPENKTFVIIPELVLPNREVASVRARDDDSGNNGVILFSILRVDFISKDGATIPFQGVFSIFTSSEADVFAGSIQPVTSLDSTLQGTYQVTVQARDRPSLGPFLEATTTLNLFTVDQSYRSRLQFSTPKEEVGANRQAINAALTQATRTTVYIVDIQDIDSAARARPHSYLDAYFVFPNGSALTLDELSVMIRNDQDSLTQLLQLGLVVLGSQESQESDLSKQLISVIIGLGVALLLVLVIMTMAFVCVRKSYNRKLQAMKAAKEARKTAAGVMPSAPAIPGTNMYNTERANPMLNLPNKDLGLEYLSPSNDLDSVSVNSLDDNSVDVDKNSQEIKEHRPPHTPPEPDPEPLSVVLLGRQAGASGQLEGPSYTNAGLDTTDL
partner: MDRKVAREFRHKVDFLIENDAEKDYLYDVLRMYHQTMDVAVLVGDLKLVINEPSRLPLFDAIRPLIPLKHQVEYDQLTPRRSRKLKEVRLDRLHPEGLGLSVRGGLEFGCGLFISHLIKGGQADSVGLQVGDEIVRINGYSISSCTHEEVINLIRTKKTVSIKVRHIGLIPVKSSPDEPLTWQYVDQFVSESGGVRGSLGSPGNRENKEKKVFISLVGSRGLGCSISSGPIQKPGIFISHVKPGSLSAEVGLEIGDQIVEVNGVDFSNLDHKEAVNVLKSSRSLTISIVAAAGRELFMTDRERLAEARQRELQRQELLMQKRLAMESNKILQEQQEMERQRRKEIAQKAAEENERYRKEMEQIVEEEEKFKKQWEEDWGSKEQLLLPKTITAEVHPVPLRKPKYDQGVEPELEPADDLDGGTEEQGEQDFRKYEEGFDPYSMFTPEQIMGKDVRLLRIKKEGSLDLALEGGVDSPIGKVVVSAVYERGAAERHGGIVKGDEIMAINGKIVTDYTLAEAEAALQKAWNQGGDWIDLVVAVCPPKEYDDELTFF
B2: Cadherin-related family member 5 (Homo sapiens), Q9HBB8-2 (parent)
chain: MGSWALLWPPLLFTGLLVRPPGTMAQAQYCSVNKDIFEVEENTNVTEPLVDIHVPEGQEVTLGALSTPFAFRIQGNQLFLNVTPDYEEKSLLEAQLLCQSGGTLVTQLRVFVSVLDVNDNAPEFPFKTKEIRVEEDTKVNSTVIPETQLQAEDRDKDDILFYTLQEMTAGASDYFSLVSVNRPALRLDRPLDFYERPNMTFWLLVRDTPGENVEPSHTATATLVLNVVPADLRPPWFLPCTFSDGYVCIQAQYHGAVPTGHILPSPLVLRPGPIYAEDGDRGINQPIIYSIFRGNVNGTFIIHPDSGNLTVARSVPSPMTFLLLVKGQQADLARYSVTQVTVEAVAAAGSPPRFPQRLYRGTVARGAGAGVVVKDAAAPSQPLRIQAQDPEFSDLNSAITYRITNHSHFRMEGEVVLTTTTLAQAGAFYAEVEAHNTVTSGTATTVIEIQVSEQEPPSTGGGPSEDKRFSVVDMAALGGVLGALLLLALLGLAVLVHKHYGPRLKCCCGKAPEPQPQGFDNQAFLPDHKANWAPVPSPTHDPKPAEAPMPAEPAPPGPASPGGAPEPPAAARAGGSPTAVRSILTKERRPEGGYKAVWFGEDIGTEADVVVLNAPTLDVDGASDSGSGDEGEGAGRGGGPYDAPGGDDSYI
partner: B1 chain
B3: Cadherin-related family member 5 (Homo sapiens), Q9HBB8 (parent)
chain: MGSWALLWPPLLFTGLLVRPPGTMAQAQYCSVNKDIFEVEENTNVTEPLVDIHVPEGQEVTLGALSTPFAFRIQGNQLFLNVTPDYEEKSLLEAQLLCQSGGTLVTQLRVFVSVLDVNDNAPEFPFKTKEIRVEEDTKVNSTVIPETQLQAEDRDKDDILFYTLQEMTAGASDYFSLVSVNRPALRLDRPLDFYERPNMTFWLLVRDTPGENVEPSHTATATLVLNVVPADLRPPWFLPCTFSDGYVCIQAQYHGAVPTGHILPSPLVLRPGPIYAEDGDRGINQPIIYSIFRGNVNGTFIIHPDSGNLTVARSVPSPMTFLLLVKGQQADLARYSVTQVTVEAVAAAGSPPRFPQRLYRGTVARGAGAGVVVKDAAAPSQPLRIQAQDPEFSDLNSAITYRITNHSHFRMEGEVVLTTTTLAQAGAFYAEVEAHNTVTSGTATTVIEIQVSEQEPPSTDVPPSPEAGGTTGPWTSTTSEVPRPPEPSQGPSTTSSGGGTGPHPPSGTTLRPPTSSTPGGPPGAENSTSHQPATPGGDTAQTPKPGTSQPMPPGVGTSTSHQPATPSGGTAQTPEPGTSQPMPPSMGTSTSHQPATPGGGTAQTPEAGTSQPMPPGMGTSTSHQPTTPGGGTAQTPEPGTSQPMPLSKSTPSSGGGPSEDKRFSVVDMAALGGVLGALLLLALLGLAVLVHKHYGPRLKCCCGKAPEPQPQGFDNQAFLPDHKANWAPVPSPTHDPKPAEAPMPAEPAPPGPASPGGAPEPPAAARAGGSPTAVRSILTKERRPEGGYKAVWFGEDIGTEADVVVLNAPTLDVDGASDSGSGDEGEGAGRGGGPYDAPGGDDSYI
partner: B1 partner

Variants of: B1
Details: with USH1C

effect of a mutation on the interaction	Variant
disrupting interaction strength	L1310R

Variants of: B2
Details: with cdhr2_human CDHR2, Q9BYE9

effect of a mutation on the interaction	Variant
disrupting interaction strength	R109G

Variants of: B3
Details: with USH1C

effect of a mutation on the interaction	Variant
disrupting interaction strength	I845R
